Results as given in patent US20100216187A1 (published 2010).

These binders were tested against T1, human serum albumin (human, UniProt P02768 25-609) (assay: SPR (Biacore), ratio of the off rates at the two pH).
T1 construct: Bought serum albumin; also called HSA; antigen

| Binder | Ratio pH 7/pH 5 (of kd) |
| --- | --- |
| Nanobody 4C9 (VHH) VHH: EVQLVESGGGLVQAGDSLRLSCTASERPFSTYVMGWFRRAPGKEREFVGGITWSGINAWYTDSVLGRFTISSDNAKNTVYLQMNSLKPEDTAVYYCAAASGVGRYRYELQYDYWGQGTQVTVSS | 3.88 |
| Nanobody 4C3 (VHH) VHH: EVQLVESGGGLVQAGGSLRLSCAASGRTFSSYAMAWFRQAPGEEREFVATISVSGGYTYYADSVKGRFTISRDNAKNTVYLQMNTLKPEDTAVYYCAAGDSSSWLEHMYDYWGQGTQVTVSS | 3.35 |
| Nanobody 4D10 (VHH) VHH: EVQLVESGGGLVQAGDSLRLSCTASERPFMSYVMGWFRRAPGKDREFVGAITWSGINTWYSDSVLGRFTISRDNAKNTVYLQMNSLKPEDTAVYYCAVADGVGLYRYERQYDYWGQGTQVTVSS | 6.52 |
| Nanobody 4B1 (VHH) VHH: EVQLVESGGGLVQPGGSLRLSCVAAGFTLDYYAIGWFRQAPGKEREGVSCITSDGRTYYADSVKGRFTISRDMAKKMVYLQMNSLKPEDTAVYYCAAGACMGGSGYEADFGSWGQGTQVTVSS | 0.88 |
| Nanobody 4A6 (VHH) VHH: EVQLVESGGGLVQPGGSLRLSCAASPFTLDYYAIGWFRQAPGKEREGVSCSTSHGKTYHADSVKGRFTISRDNAKNTVYLQMNSLKPEDTAVYYCAAGACMGGSGYEADFGSWGQGTQVTVSS | 5.77 |
| Nanobody 4B10 (VHH) VHH: EVQLVESGGGLVQAGDSLRLSCAASGRTFSSYAMGWFRQAPGTERQFVARITGKGDSTDYADSVRGRFTISRDNAKNTVYLQMNSLKPEDTAVYYCAADAFNSLLQAGRAEYWGQGTQVTVSS | 0.87 |
| Nanobody 4D4 (VHH) VHH: EVQLVESGGGLVQAGDSLRLSCAASGRTFSPYVMGWFRRAPGKEREFVGGINWSGSNTWYTDSVKGRFTISRDNVKNMVYLQMNSLKPEDTAVYYCAAGSGVGMYRYERQYDYWGQGTQVTVSS | 2.76 |
| Nanobody 4D5 (VHH) VHH: EVQLVESGGGLVQAGGSLRLSCAASGLSFSKYAMGWFRQAPGKQREYVAVISSSDTTYYTNSAKGRFTISRDNAENTVYLQMNSLKPEDTAVYFCAADSYVTALQTLTQISYWGQGTQVTVSS | 1.29 |
| Nanobody 4C11 (VHH) VHH: EVQLVESGGGLVQAGGSLRLSCAASGLSFSRYAMGWFRQAPGKQREYVAVISSSDTTYYTNSAKGRFTISRDNAENTVYLQMNSLKPEDTAVYFCAADSFVTALQTLTQINYWGQGTQVTVSS | 1.19 |
| Nanobody 4A9 (VHH) VHH: EVQLVESGGGLVQAGGSLRLSCEASGFTLDYSGVGWFRQAPGKERELVSCISRGGDRAGYANSVKGRFTMSRDNAKNILYLQMNSLKPEDTAVYYCAATHSGSGCYDGAIDYWGKGTLVTVSS | 0.54 |
| Nanobody 4C8 (VHH) VHH: EVQLVESGGGLVQAGDSLRLSCAASGRTYTPYVMGWFRRAPGKEREFVGAVSWSGTNTWYTDSVKGRFTISRDNAKNTVYLQMNSLKPEDTAVYYCAAGDGVGIYRYEHQYDYWGQGTQVTVSS | 3.35 |
| Nanobody 4C5 (VHH) VHH: EVQLVESGGGLVQAGDSLRLSCAASGRPFSAYVMGWFRRAPGKEREFVGGINWNSANTWYTDSVLGRFTISKDNAKNTVYLQMNSLKPEDTAVYYCAAAGGVGYYRYERQYDYWGQGTQVTVSS | 2.44 |
| Nanobody 4C4 (VHH) VHH: EVQLVESGGGLVQAGDSLRLSCAASGRPFMSYVMGWFRRAPGKEREFVGGINWGSGNTWYTDSVLGRFTISRDNAKNTVYLQMNSLKPEDTAVYYCATAAGVGYYRYERQYDYWGQGTQVTVSS | 2.42 |
| Nanobody 4D7 (VHH) VHH: EVQLVESGGGLVQAGDSLRLSCAASGRPFSSYVMGWFRRAPGKEREFVGGINWNSGNTWYSDSVLGRFTISRDNAKNTVDLQMNSLKPEDTAVYYCATASGVGYYRYERQYDYWGQGTQVTVSS | 2.42 |
| Nanobody 4B6 (VHH) VHH: KVQLVESGGGLVQVGGSLRLSCVASGRTYGGNAMAWFRQAPGKEREFVAGIDWSSENTRYTDSVKGRFTISRDNAKNTMYLQMNSLKPEDTAVYYCAAGTSWGALASRLENAYSAWGQGTQVTVSS | 3.23 |
| Nanobody 4B8 (VHH) VHH: EVQLVESGGGLVQAGGSLRLSCAASGGTYSGNAMAWFRQAPGKEREFVAGIDWSSENTRYIDSVKGRFTISRDNAKNTMYLQMNSLKPEDTAVYYCAAGTSWGALASRLEAAYSSWGQGTQVTVSS | 2.43 |
| Nanobody 4B5 (VHH) VHH: EVQLVESGGGLVQAGDSLRLSCAASGRTYSRNAMAWFRQAPGKEREFVAGIDWSSENTRYIDSVKGRFTISRDNAKSTMYLQMNSLKPEDTAVYYCAAGTSWGALASRLEAAYSSWGQGTQVTVSS | 2.32 |
